Laboratory results published in PMC5436847.

Tests used:
[1] = test system: P34 Y174A (Trypanosoma brucei); assay: filter binding; settings: Filter binding: 10 mM Tris pH 7.4, 1 mM EDTA, 100 mM NaCl, 100 ug/ml BSA, 30 min, room temperature; 0.05 nM 5S rRNA, 0-300 nM protein; Bmax fixed at 100%
[2] = test system: P34 N-terminus-RRM1 (lacks RRM2 and C-terminus) (Trypanosoma brucei); assay: filter binding; settings: Filter binding: 10 mM Tris pH 7.4, 1 mM EDTA, 100 mM NaCl, 100 ug/ml BSA, 30 min, room temperature; 0.05 nM 5S rRNA, 0-300 nM protein; Bmax fixed at 100%
[3] = test system: P34 Y60A (Trypanosoma brucei); assay: filter binding; settings: Filter binding: 10 mM Tris pH 7.4, 1 mM EDTA, 100 mM NaCl, 100 ug/ml BSA, 30 min, room temperature; 0.05 nM 5S rRNA, 0-300 nM protein; Bmax fixed at 100%
[4] = test system: P34 full length (WT) (Trypanosoma brucei); assay: filter binding; settings: Filter binding: 10 mM Tris pH 7.4, 1 mM EDTA, 100 mM NaCl, 100 ug/ml BSA, 30 min, room temperature; 0.05 nM 5S rRNA, 0-300 nM protein; Bmax fixed at 100%
[5] = test system: P34 Y92A (Trypanosoma brucei); assay: filter binding; settings: Filter binding: 10 mM Tris pH 7.4, 1 mM EDTA, 100 mM NaCl, 100 ug/ml BSA, 30 min, room temperature; 0.05 nM 5S rRNA, 0-300 nM protein; Bmax fixed at 100%
[6] = test system: P34 RRM2 (Trypanosoma brucei); assay: filter binding; settings: Filter binding: 10 mM Tris pH 7.4, 1 mM EDTA, 100 mM NaCl, 100 ug/ml BSA, 30 min, room temperature; 0.05 nM 5S rRNA, 0-300 nM protein; Bmax fixed at 100%
[7] = test system: P34 N-terminus-RRM1-RRM2 (lacks C-terminus) (Trypanosoma brucei); assay: filter binding; settings: Filter binding: 10 mM Tris pH 7.4, 1 mM EDTA, 100 mM NaCl, 100 ug/ml BSA, 30 min, room temperature; 0.05 nM 5S rRNA, 0-300 nM protein; Bmax fixed at 100%
[8] = test system: P34 RRM1 (Trypanosoma brucei); assay: filter binding; settings: Filter binding: 10 mM Tris pH 7.4, 1 mM EDTA, 100 mM NaCl, 100 ug/ml BSA, 30 min, room temperature; 0.05 nM 5S rRNA, 0-300 nM protein; Bmax fixed at 100%
[9] = test system: P34 R91A, Y92A (Trypanosoma brucei); assay: filter binding; settings: Filter binding: 10 mM Tris pH 7.4, 1 mM EDTA, 100 mM NaCl, 100 ug/ml BSA, 30 min, room temperature; 0.05 nM 5S rRNA, 0-300 nM protein; Bmax fixed at 100%
[10] = test system: P34 F141A (Trypanosoma brucei); assay: filter binding; settings: Filter binding: 10 mM Tris pH 7.4, 1 mM EDTA, 100 mM NaCl, 100 ug/ml BSA, 30 min, room temperature; 0.05 nM 5S rRNA, 0-300 nM protein; Bmax fixed at 100%
[11] = test system: P34 RRM1-RRM2 (Trypanosoma brucei); assay: filter binding; settings: Filter binding: 10 mM Tris pH 7.4, 1 mM EDTA, 100 mM NaCl, 100 ug/ml BSA, 30 min, room temperature; 0.05 nM 5S rRNA, 0-300 nM protein; Bmax fixed at 100%
[12] = test system: P34 Y176A (Trypanosoma brucei); assay: filter binding; settings: Filter binding: 10 mM Tris pH 7.4, 1 mM EDTA, 100 mM NaCl, 100 ug/ml BSA, 30 min, room temperature; 0.05 nM 5S rRNA, 0-300 nM protein; Bmax fixed at 100%
[13] = molecular target: P34 R91A mutated protein (Trypanosoma brucei); assay: co-IP; immune capture: beads coated with anti-P34/P37 antibody incubated with the recombinant proteins (1 μg each) for 1 hr at 4°C, washed three times in PBS-T, eluted in SDS sample buffer; bound L5 (pellet) detected by western blot with anti-L5 antibody; pellet signal normalised to L5 + P34 FL, set to 1; at least three biological replicates
[14] = molecular target: P34 R88-91K mutated protein (Trypanosoma brucei); assay: as above
[15] = molecular target: P34 N-terminus-RRM1 truncate (P34 lacking both RRM2 and the C-terminus) (Trypanosoma brucei); assay: as above
[16] = molecular target: P34 R91A, Y92A mutated protein (Trypanosoma brucei); assay: as above
[17] = molecular target: P34 RRM1-RRM2 truncate (the RRM domains alone) (Trypanosoma brucei); assay: as above
[18] = molecular target: P34 R88-91A mutated protein (Trypanosoma brucei); assay: as above
[19] = molecular target: P34 N-terminus-RRM2 truncate (P34 lacking the C-terminus) (Trypanosoma brucei); assay: as above
[20] = molecular target: P34 RRM2 truncate protein (Trypanosoma brucei); assay: as above
[21] = molecular target: P34 RRM1 truncate protein (Trypanosoma brucei); assay: as above

## 5S rRNA
[1]
  binding signal (fold affinity increase vs WT): 2
[2]
  Kd: 103 nM
[3]
  binding signal (fold affinity increase vs WT): 2
[4]
  Kd: 30 nM
[5]
  binding signal (fold affinity increase vs WT): 2
[6]
  Kd: 297 nM
[7]
  Kd: 66 nM
[8]
  Kd: 69 nM
[9]
  binding signal (fold affinity increase vs WT): 2
[10]
  binding signal (fold affinity increase vs WT): 2
[11]
  Kd: 67 nM
[12]
  binding signal (fold affinity increase vs WT): 2

## ribosomal protein L5 (natural protein)
[13]
  amount of L5 bound relative to P34 WT (set as 1) (relative to P34 WT = 1): 1.3
[14]
  amount of L5 bound relative to P34 WT (set as 1) (relative to P34 WT = 1): 0.75
[15]
  amount of L5 bound relative to P34 full length (set as 1) (relative to P34 full length = 1): 0.93
[16]
  amount of L5 bound relative to P34 WT (set as 1) (relative to P34 WT = 1): 1.5
[17]
  amount of L5 bound relative to P34 full length (set as 1) (relative to P34 full length = 1): 0.64
[18]
  amount of L5 bound relative to P34 WT (set as 1) (relative to P34 WT = 1): 0.45
[19]
  amount of L5 bound relative to P34 full length (set as 1) (relative to P34 full length = 1): 1.1
[20]
  amount of L5 bound relative to P34 full length (set as 1) (relative to P34 full length = 1): 0.54
[21]
  amount of L5 bound relative to P34 full length (set as 1) (relative to P34 full length = 1): 0.65
